Measured values reported in patent US20250049930A1 (CEDARS SINAI MEDICAL CENTER, published 2025).
Primed or numbered codes have the meaning given here. PEG4′ = polyethylene glycol linker with 4 oxyethylene units

What was measured:
[1] = molecular target: T1, cereblon (E3 ubiquitin ligase); test: SPR imaging (PlexArray HT), cereblon printed on chip; binary complex of cereblon and PF
T1 chain: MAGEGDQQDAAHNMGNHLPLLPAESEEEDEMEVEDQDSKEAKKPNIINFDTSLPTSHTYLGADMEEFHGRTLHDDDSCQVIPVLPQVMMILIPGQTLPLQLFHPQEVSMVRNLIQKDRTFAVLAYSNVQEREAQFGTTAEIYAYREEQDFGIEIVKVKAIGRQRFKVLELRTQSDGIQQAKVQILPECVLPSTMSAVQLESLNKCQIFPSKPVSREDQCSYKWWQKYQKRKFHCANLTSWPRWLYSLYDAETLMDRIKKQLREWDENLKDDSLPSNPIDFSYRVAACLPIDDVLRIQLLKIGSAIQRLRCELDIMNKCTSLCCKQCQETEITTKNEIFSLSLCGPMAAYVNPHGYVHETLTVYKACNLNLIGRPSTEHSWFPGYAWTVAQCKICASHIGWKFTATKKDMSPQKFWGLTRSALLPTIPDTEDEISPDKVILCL

[2] = molecular target: T1, cereblon (E3 ubiquitin ligase); test: SPR imaging (PlexArray HT), cereblon printed on chip; ternary complex of cereblon, FoxP3 and P-FoxP3 (recombinant FoxP3 present)

B1: Proteolysis-targeting chimera (PROTAC) targeting FoxP3 (Pomalidomide-PEG4-RDFQSFRKMWPFFAM) (peptide)
peptide: {pomalidomide-PEG4′}-RDFQSFRKMWPFFAM-OH
notes: Conjugate of the P60 peptide with the small molecule pomalidomide; also called P-FoxP3; PROTAC for FoxP3
Kd [1]: 987 nM
Kd [2]: 434 nM
